The source of these data is patent US20120219545A1.

For assay [1], the target named is serum IgE of subject 2 (human). Put plainly: ELISA inhibition; serum of subject 2 preincubated with rSCP, IgE binding to plate-coated boiled shrimp extract. On the technique in general: ELISA stands for enzyme-linked immunosorbent assay.
In assay [2] the target is IgE of the serum pool of subjects 14, 47 and 48 (human). The experiment in a line: cell-based or functional assay.
Assay [3] has as its target serum IgE of subject 43 (human). The experiment in a line: ELISA inhibition; serum of subject 43 preincubated with rSCP (printed 25 mg/mL), IgE binding to plate-coated boiled shrimp extract.

B1: recombinant shrimp sarcoplasmic calcium-binding protein (rSCP) (protein, not shown: small tags and cut ends)
chain: MAYSWDNRVKYVVRYMYDIDNNGFLDKNDFECLAVRNTLIEGRGEFSADAYANNQKIMRNLWNEIAELADFNKDGEVTVDEFKQAVQKHCQGKKYGDFPGAFKVFIANQFKAIDVNGDGKVGLDEYRLDCITRSAFAEVKEIDDAYNKLTTEDDRKAGGLTLERYQDLYAQFISNPDESCSACYLFGPLKVVQ
On to B1, for which the maximal inhibition was found to be 48% in assay [1] and 79% in assay [3]. The molecule further gave a mediator release (beta-hexosaminidase) from RBL-2H3 cells (% of total possible release) in assay [2] of 30. In assay [2] (scale: % of the release obtained with BS extract), the mediator release (beta-hexosaminidase) from RBL-2H3 cells was 65.
